Measurements from paper PMC4161027 (2014).

Target: F-actin (polymerized rabbit muscle G-actin) (Oryctolagus cuniculus (Rabbit), UniProt P68135)
Assay: F-actin co-sedimentation

B1: GST-tagged ENTH domain of rat epsin 1 (protein)
chain: MSTSSLRRQMKNIVHNYSEAEIKVREATSNDPWGPSSSLMSEIADLTYNVVAFSEIMSMIWKRLNDHGKNWRHVYKAMTLMEYLIKTGSERVSQQCKENMYAVQTLKDFQYVDRDGKDQGVNVREKAKQLVALLRDEDRLREER
B1: no binding.
